Assay results published in the supplement of paper PMC7877785.
± gives the uncertainty stated by the source.

Assay: self-splicing fitness, log relative to wild type (ln ratio); higher = more splicing; Tetrahymena group I intron in knt gene, E. coli kanamycin selection, DiMSum; sequences stand for … in CUCUCU…GGAGGGAAAAGUUAUCAGGCAUGCACCUGGUAGCUAGUCUUUAAACCAAUAGAUUGCAUCGGUUUAAAAGGCAAGACCGUCAAAUUGCGGGAAAGGGGUCAACAGCCGUUCAGUACCAAGUCUCAGGGGAAACUUUGAGAUGGCCUUGCAAAGGGUAUGGUAAUAAGCUGACGGACAUGGUCCUAACCACGCAGCCAAGUCCUAAGUCAACAGAUCUUCUGUUGAUAUGGAUGCAGUUCACAGACUAAAUGUCGGUCGGGGAAGAUGUAUUCUUCUCAUAAGAUAUAGUCGGACCUCUCCUUAAUGGGAGCUAGCGGAUGAAGUGAUGCAACACUGGAGCCGCUGGGAACUAAUUUGUAUGCGAAAGUAUAUUGAUUAGUUUUGGAGUACUCGUGGUCG
Procedure, shortened: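 Library with all eight P1ex-region intron nucleotides randomised, intron inside the knt kanamycin-resistance gene on pET-22b(+), in E. coli BL21(DE3). Cells grew overnight at 37°C or 30°C on LB agar with or without 25 μg/mL kanamycin (plus 100 μg/mL carbenicillin, 50 μM IPTG, 0.2% rhamnose), in six replicate transformations. Pooled colonies were amplicon-sequenced on Illumina HiSeq 2500. DiMSum fitness is the error-weighted combination of wild-type-normalised replicate fold changes, kanamycin versus none.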

Row | Sequence | self-splicing fitness (ln) (30 °C) | self-splicing fitness (ln) (37 °C)
1 | AAUCAGCAAUAUUACGUCGC | -2.06 ± 0.17 | -1.24 ± 0.17
2 | CGGUAGCAAUAUUACGAGUA |  | -1.32 ± 0.4
3 | GUACAGCAAUAUUACGGGCA | -1.9 ± 0.093 | -0.873 ± 0.088
4 | AUCGAGCAAUAUUACGCUAU | -3.38 ± 0.29 | -3.08 ± 0.24
5 | UGUGAGCAAUAUUACGGCUG | -0.445 ± 0.12 | -0.456 ± 0.19
6 | CGUCAGCAAUAUUACGUCAC |  | -1.42 ± 0.26
7 | GCCGAGCAAUAUUACGCUAA | -1.86 ± 0.2 | -2.62 ± 0.23
8 | AAACAGCAAUAUUACGGGUG | -3.09 ± 0.094 | -1.73 ± 0.089
9 | CAUCAGCAAUAUUACGCCCU | -2.55 ± 0.36 | -1.54 ± 0.43
10 | AUGCAGCAAUAUUACGGAAC |  | -2.76 ± 0.36
11 | GGCUAGCAAUAUUACGGUCC | -4.11 ± 0.33 | -2.97 ± 0.28
12 | CUAUAGCAAUAUUACGCGUC | -3.97 ± 0.34 | -2.71 ± 0.25
13 | ACUGAGCAAUAUUACGCAUC | -2.22 ± 0.24 | -2.08 ± 0.24
14 | ACGCAGCAAUAUUACGGUAC | -1.03 ± 0.18 | -2.48 ± 0.45
15 | AUUAAGCAAUAUUACGCUGC | -3.87 ± 0.27 | -1.98 ± 0.22
16 | GUCGAGCAAUAUUACGAACG |  | -1.02 ± 0.23
17 | UAUGAGCAAUAUUACGCGAU |  | -2.93 ± 0.37
18 | CGAAAGCAAUAUUACGCAAA | -2.59 ± 0.26 | -2.35 ± 0.32
19 | UACGAGCAAUAUUACGCCUA | -1.81 ± 0.15 | -0.823 ± 0.16
20 | GUCAAGCAAUAUUACGCAUG | -4.62 ± 0.34 | -2.33 ± 0.17
21 | CUGGAGCAAUAUUACGUUGG | -2.89 ± 0.14 | -1.86 ± 0.15
22 | AUGUAGCAAUAUUACGGGCC | -2.93 ± 0.35 | -1.86 ± 0.32
23 | AUCAAGCAAUAUUACGUAGA | -1.36 ± 0.094 | -1.66 ± 0.17
24 | CAAAAGCAAUAUUACGCGCU | -3.18 ± 0.14 | -0.642 ± 0.1
25 | GUUUAGCAAUAUUACGGAUA | -2.77 ± 0.27 | -1.37 ± 0.19
26 | CAAAAGCAAUAUUACGUUAA | -2.65 ± 0.16 | -2.06 ± 0.12

Row | Sequence | self-splicing fitness (ln) (30 °C) | self-splicing fitness (ln) (37 °C)
27 | GCAAAGCAAUAUUACGCGGG | -3.11 ± 0.21 | -2.41 ± 0.21
28 | CGGGAGCAAUAUUACGAGCU | -3.18 ± 0.41 | -1.89 ± 0.38
29 | CUUUAGCAAUAUUACGAACU | -3.28 ± 0.24 | -2.54 ± 0.19
30 | UACAAGCAAUAUUACGUUCG | -0.617 ± 0.074 | 0.321 ± 0.099
31 | GAGCAGCAAUAUUACGCCCG | -1.84 ± 0.25 | -0.798 ± 0.27
32 | CGAAAGCAAUAUUACGCCGC |  | -2.13 ± 0.36
33 | CGUCAGCAAUAUUACGGUCU | -0.849 ± 0.079 | -0.828 ± 0.1
34 | AACGAGCAAUAUUACGGUGG | -3.68 ± 0.32 | -2.05 ± 0.34
35 | UCUUAGCAAUAUUACGGCCU | -3.85 ± 0.46 | 
36 | UGGCAGCAAUAUUACGAUCA | -0.413 ± 0.14 | -0.198 ± 0.12
37 | CAAUAGCAAUAUUACGGAGU | -4.14 ± 0.43 | -2.04 ± 0.25
38 | CAGCAGCAAUAUUACGUAUU | -3.51 ± 0.25 | -2.23 ± 0.22
39 | GGCUAGCAAUAUUACGUACG | -0.805 ± 0.1 | 0.365 ± 0.11
40 | GAUUAGCAAUAUUACGACAC | -0.38 ± 0.17 | -1.07 ± 0.17
41 | CUAUAGCAAUAUUACGUAAU | -2.07 ± 0.16 | -3.88 ± 0.36
42 | UGCAAGCAAUAUUACGCCGA | -1.38 ± 0.15 | -0.485 ± 0.14
43 | GAUGAGCAAUAUUACGAUCU |  | -1.86 ± 0.29
44 | CAUCAGCAAUAUUACGUCCA | -1.71 ± 0.12 | -2.92 ± 0.22
45 | CGCUAGCAAUAUUACGGUUU | -1.69 ± 0.053 | -0.856 ± 0.074
46 | AGCAAGCAAUAUUACGGAGA | -3.25 ± 0.17 | -2.35 ± 0.19
47 | CUCAAGCAAUAUUACGUCCU | -4 ± 0.27 | -2.79 ± 0.19
48 | CUUAAGCAAUAUUACGUAAA | -3.93 ± 0.27 | -2.88 ± 0.36
49 | GUCUAGCAAUAUUACGUACC | -0.591 ± 0.29 | -0.721 ± 0.3
50 | GUAUAGCAAUAUUACGCCGU | -2.69 ± 0.23 | -0.947 ± 0.19
51 | UAGUAGCAAUAUUACGCACA | -1.2 ± 0.1 | -0.493 ± 0.12
52 | GAAAAGCAAUAUUACGGAUU | -2.03 ± 0.09 | -1.03 ± 0.11

Row | Sequence | self-splicing fitness (ln) (30 °C) | self-splicing fitness (ln) (37 °C)
53 | CAUUAGCAAUAUUACGCAAC | -2.14 ± 0.46 | -2.51 ± 0.3
54 | GCCAAGCAAUAUUACGGCAG | -3.71 ± 0.19 | -2.54 ± 0.23
55 | CGGAAGCAAUAUUACGGGUA | -3.4 ± 0.23 | -2.07 ± 0.14
56 | AUCCAGCAAUAUUACGGUUA | -0.475 ± 0.05 | 0.0679 ± 0.054
57 | CGGAAGCAAUAUUACGUCAA |  | -3.55 ± 0.42
58 | AUGAAGCAAUAUUACGGCUU | -4.22 ± 0.24 | -3.03 ± 0.21
59 | CUGGAGCAAUAUUACGAAAU | -3.11 ± 0.22 | -2.72 ± 0.29
60 | CUCUAGCAAUAUUACGAUCG | -1.57 ± 0.081 | -0.281 ± 0.12
61 | AAACAGCAAUAUUACGCGAG | -1.6 ± 0.076 | -1.12 ± 0.096
62 | CCAAAGCAAUAUUACGCUCA | -3.2 ± 0.14 | -2.2 ± 0.16
63 | AAUCAGCAAUAUUACGAUCA | 0.364 ± 0.09 | 0.109 ± 0.11
64 | GACCAGCAAUAUUACGGUCU | -3.61 ± 0.17 | -3.16 ± 0.21
65 | GUCAAGCAAUAUUACGGAAU | -2.07 ± 0.12 | -1.09 ± 0.12
66 | UCUCAGCAAUAUUACGGGGA | -2.92 ± 0.21 | -1.98 ± 0.22
67 | CCGCAGCAAUAUUACGCGCA | -3.08 ± 0.27 | -1.41 ± 0.16
68 | UUAUAGCAAUAUUACGGCGG | -0.333 ± 0.16 | 0.825 ± 0.2
69 | GGCGAGCAAUAUUACGUUGU | -3.25 ± 0.18 | -2.48 ± 0.25
70 | ACUUAGCAAUAUUACGUCCU | -0.527 ± 0.085 | -0.132 ± 0.13
71 | ACGGAGCAAUAUUACGUGGG | -3.99 ± 0.18 | -2.29 ± 0.15
72 | GGUCAGCAAUAUUACGUAAA | 0.301 ± 0.14 | 0.672 ± 0.18
73 | AGGUAGCAAUAUUACGGCGU | -0.0406 ± 0.013 | 0.231 ± 0.033
74 | GACAAGCAAUAUUACGCGUC | -4.02 ± 0.22 | -3.45 ± 0.39
75 | ACUCAGCAAUAUUACGUGAU | -1 ± 0.064 | -0.627 ± 0.078
76 | CAGGAGCAAUAUUACGCGUU | -3.4 ± 0.17 | -2.01 ± 0.19
77 | CCUAAGCAAUAUUACGAAAA | -3.53 ± 0.28 | -2.44 ± 0.19
78 | UGACAGCAAUAUUACGCAGC | -3.89 ± 0.33 | -2.43 ± 0.27
